Where a chain is given by its changes, count along the chain named. In names and notes the source's numbering stands.

Holding throughout (assay): flow cytometry, transfected 293T cells, 2 mM CaCl2;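 further: binding of Alexa647-labelled anti-CDH19 antibodies to cells expressing human/chicken CDH19 chimeras, read as cell-bound fluorescence, with mock-transfected cells as controls, n.d. meaning not determined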
Experiment [1] addresses huCDH19(44-772) with Flag tag (construct A, Hu EC1-5) (human, UniProt Q9H159 44-772).
Experiment [2] deals with T1, ckCDH19(1-43)::FLAG::ckCDH19(44-776) (construct J, Ck EC1-5) (chicken).
T1 construct: the entry holds leader (1-43), FLAG and ckCDH19(44-776); leader left out; also called chicken Cadherin19
T1 chain: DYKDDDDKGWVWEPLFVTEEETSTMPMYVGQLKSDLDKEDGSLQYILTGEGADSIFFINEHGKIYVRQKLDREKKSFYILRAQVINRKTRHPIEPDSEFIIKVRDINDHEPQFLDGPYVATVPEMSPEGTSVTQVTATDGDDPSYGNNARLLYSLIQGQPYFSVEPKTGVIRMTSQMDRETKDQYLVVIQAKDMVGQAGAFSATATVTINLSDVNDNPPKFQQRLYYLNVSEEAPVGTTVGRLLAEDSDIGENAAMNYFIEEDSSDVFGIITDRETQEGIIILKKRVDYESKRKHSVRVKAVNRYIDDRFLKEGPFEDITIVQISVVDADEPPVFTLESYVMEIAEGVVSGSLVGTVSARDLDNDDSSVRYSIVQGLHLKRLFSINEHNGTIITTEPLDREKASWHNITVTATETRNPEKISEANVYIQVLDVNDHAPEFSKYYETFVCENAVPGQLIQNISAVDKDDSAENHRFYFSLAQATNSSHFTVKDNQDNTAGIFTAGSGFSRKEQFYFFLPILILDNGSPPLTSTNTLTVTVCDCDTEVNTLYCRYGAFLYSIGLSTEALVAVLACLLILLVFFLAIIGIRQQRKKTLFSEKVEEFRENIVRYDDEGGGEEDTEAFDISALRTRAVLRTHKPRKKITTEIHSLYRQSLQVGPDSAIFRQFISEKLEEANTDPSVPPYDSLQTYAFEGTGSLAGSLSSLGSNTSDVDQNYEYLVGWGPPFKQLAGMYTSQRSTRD

Experiment [3] has as its target T2, huCDH19(1-43)::FLAG::hu(44-141)::ckCDH19(142-776) (construct K, Hu EC1) (human/chicken chimera).
T2 construct: leader (1-43 of the entry) left out; also called huCDH19(44-141)::ckCDH19(142-776)

In experiment [4] the target is T3, ckCDH19(1-43)::FLAG::ckCDH19(44-141)::huCDH19(142-249)::ckCDH19(250-776) (construct L, Hu EC2) (human/chicken chimera).
T3 construct: leader (1-43 of the entry) left out
T3 chain: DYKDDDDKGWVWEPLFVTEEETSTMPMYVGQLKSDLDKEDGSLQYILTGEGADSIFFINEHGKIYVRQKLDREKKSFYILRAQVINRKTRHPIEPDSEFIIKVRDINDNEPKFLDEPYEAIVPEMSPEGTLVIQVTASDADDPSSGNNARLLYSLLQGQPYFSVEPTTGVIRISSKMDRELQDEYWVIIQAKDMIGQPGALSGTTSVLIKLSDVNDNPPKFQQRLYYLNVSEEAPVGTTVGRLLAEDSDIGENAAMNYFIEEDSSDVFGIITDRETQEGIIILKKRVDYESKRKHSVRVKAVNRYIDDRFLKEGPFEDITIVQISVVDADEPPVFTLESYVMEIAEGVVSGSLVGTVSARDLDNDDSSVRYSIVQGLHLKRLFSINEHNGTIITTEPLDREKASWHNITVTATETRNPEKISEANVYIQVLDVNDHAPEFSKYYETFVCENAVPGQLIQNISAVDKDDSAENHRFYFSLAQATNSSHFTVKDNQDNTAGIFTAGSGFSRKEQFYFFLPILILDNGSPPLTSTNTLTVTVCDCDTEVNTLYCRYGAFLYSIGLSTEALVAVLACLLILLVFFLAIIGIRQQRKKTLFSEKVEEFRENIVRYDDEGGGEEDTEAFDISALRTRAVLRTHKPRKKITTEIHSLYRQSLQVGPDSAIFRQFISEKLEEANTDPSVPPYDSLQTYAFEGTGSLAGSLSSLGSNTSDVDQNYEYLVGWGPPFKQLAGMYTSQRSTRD

Experiment [5] has as its target T4, ckCDH19(1-43)::FLAG::ckCDH19(44-249)::huCDH19(250-364)::ckCDH19(365-776) (construct M, Hu EC3) (human/chicken chimera).
T4 construct: leader (1-43 of the entry) left out

Experiment [6] has as its target T5, ckCDH19(1-43)::FLAG::ckCDH19(44-468)::huCDH19(464-772) (construct O, Hu EC5) (human/chicken chimera).
T5 construct: leader (1-43 of the entry) left out
T5 chain: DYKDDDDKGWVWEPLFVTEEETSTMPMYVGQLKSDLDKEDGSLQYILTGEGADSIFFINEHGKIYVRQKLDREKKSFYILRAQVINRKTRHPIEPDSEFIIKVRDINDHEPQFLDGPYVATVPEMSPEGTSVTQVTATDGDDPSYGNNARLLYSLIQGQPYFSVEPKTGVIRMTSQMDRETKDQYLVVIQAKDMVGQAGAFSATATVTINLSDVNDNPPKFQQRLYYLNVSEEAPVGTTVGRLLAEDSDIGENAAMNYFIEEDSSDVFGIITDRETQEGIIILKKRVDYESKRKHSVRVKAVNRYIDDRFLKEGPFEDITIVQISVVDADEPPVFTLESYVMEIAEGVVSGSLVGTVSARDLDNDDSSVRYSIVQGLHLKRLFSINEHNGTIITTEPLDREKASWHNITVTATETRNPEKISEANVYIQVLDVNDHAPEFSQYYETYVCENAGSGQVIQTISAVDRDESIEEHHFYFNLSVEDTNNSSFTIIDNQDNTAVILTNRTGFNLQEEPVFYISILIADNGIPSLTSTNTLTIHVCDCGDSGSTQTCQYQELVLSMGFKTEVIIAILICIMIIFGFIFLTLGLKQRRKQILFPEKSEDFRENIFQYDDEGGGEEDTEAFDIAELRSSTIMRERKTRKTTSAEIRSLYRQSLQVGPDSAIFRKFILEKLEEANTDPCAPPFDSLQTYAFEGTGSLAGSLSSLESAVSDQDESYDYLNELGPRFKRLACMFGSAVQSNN

B1: anti-CDH19 antibody 2G6 (Ab ID 13588) (antibody, human IgG1, lambda, V domains shown)
VH: QVQLVESGGGVVQPGRSLRLSCAASGFTFSSYGMHWVRQAPGKGLEWVAFIWYDGSNKYYADSVKDRFTISRDNSKNTLYLQMKSLRAEDTAVYYCARRAGIIGTIGYYYGMDVWGQGTTVTVSS
VL: SYELTQPPSVSVSPGQTASITCSGDRLGEKYTCWYQQRPGQSPLLVIYQDTKRPSGIPERFSGSNSGNTATLTISGTQAMDEADYYCQAWDSSTVVFGGGTKLTVLG
notes: Bin 4
For B1, the binding result in experiment [1] was “binds”; in experiment [2], “no binding (tested: 5 ug/ml)”; in experiment [3], “no binding (tested: 5 ug/ml)”; in experiment [4], “no binding (tested: 5 ug/ml)”; in experiment [5], “binds”; in experiment [6] it was “no binding (tested: 5 ug/ml)”.

B2: hu anti-<huCDH19> 23A10.3 (1-474)(L92Q) VH::huIgG1z + 23A10.3 (1-231)(C42S) VL::huLLC-C2 (Ab ID 14077) (antibody, V domains shown)
VH: B1 VH with S31R, M34I, F50V, D66G, K84N, T91S, I103P, I106T
VL: B1 VL with T32V, C33S, R38K, L44I, T51N, R53W
notes: Engineered variant of 23A10; the entries already carry the changes; Bin 4
Consider B2, for which the binding result in experiment [1] is listed as “binds”; in experiment [2], “no binding (tested: 5 ug/ml)”; in experiment [3] it was “no binding (tested: 5 ug/ml)”; in experiment [4], “no binding (tested: 5 ug/ml)”; in experiment [5] it was “binds”; in experiment [6], “no binding (tested: 5 ug/ml)”.

B3: hu anti-<huCDH19> 4B10 (Ab ID 13590) (antibody, V domains shown)
VH: QVQLVESGGGVVQPGRSLRLSCAASGFTFSSYDMHWVRQAPGKGLEWVAVISYDGTNEYYADSVKGRFTISRDTSKNTLYLQMNSLRAEDTAVYYCARERYFDWSFDYWGQGTLVSVSS
VL: EIVLTQSPGTLSLSPGERATLSCRASQSVSNTYLAWYHQRPGQAPRLLIYGASSRATGIPDRFSGSGSGTDFALTISSLEPEDFAVYYCQQYSNSWTFGQGTKVEIKR
notes: huIgG1z / huKLC; Bin 4
As for B3, the binding result in experiment [1] is listed as “binds”; in experiment [2] it was “no binding (tested: 5 ug/ml)”; in experiment [3], “no binding (tested: 5 ug/ml)”; in experiment [4], “no binding (tested: 5 ug/ml)”; in experiment [5], “binds”; in experiment [6], “no binding (tested: 5 ug/ml)”.

B4: anti-CDH19 antibody 4A2 (Ab ID 13592) (antibody, human IgG1, kappa, V domains shown)
VH: QVQLQESGPGLVKPSQTLSLTCTVSGGSISSSGYYWSWIRQHPGKGLEWIGYIYYTGSAYYNPSLKSRVTISVDTSKNQFSLKLSSVTAADTAVYYCARDGSSGWYFQYWGQGTLVTVSS
VL: EIVLTQSPGTLSLSPGERATLSCRASRNISSSYLAWYQQKPGQAPRLLIYGPSSRATGIPDRFSGSGSGTDFTLTISRLEPEDFTVYYCQQYGSSFTFGPGTKVDIKR
notes: Bin 4
In the case of B4, the binding result in experiment [2], in experiment [3], in experiment [4] and in experiment [6] was “no binding (tested: 5 ug/ml)” in each case.

B5: hu anti-<huCDH19> 26D1.1 (Ab ID 13882) (antibody, human IgG1, lambda, V domains shown)
VH: QVQLVQSGAEVKKPGASVKVSCKASRYTFTSYYMSWVRQAPGQGLEWMGIIHPSGGDTTYAQKFQGRVTMTGDTSTSTVYMELSSLRSEDTAVYYCARGGIKLWLHFDYWGQGTLVTVSS
VL: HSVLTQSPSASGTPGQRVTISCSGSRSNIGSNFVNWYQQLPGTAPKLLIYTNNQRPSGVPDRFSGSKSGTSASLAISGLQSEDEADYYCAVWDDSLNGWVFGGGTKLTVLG
notes: huIgG1z / huLLC-C2; Bin 2
For the molecule B5, the binding result in experiment [1] is “binds”; in experiment [2], “no binding (tested: 5 ug/ml)”; in experiment [3] it was “binds”; in experiment [4], “no binding (tested: 5 ug/ml)”; in experiment [5], “no binding (tested: 5 ug/ml)”; in experiment [6], “no binding (tested: 5 ug/ml)”.

B6: hu anti-<huCDH19> 25F8.1 (1-469)(F90Y) VH::huIgG1z + 25F8.1 (1-235)(K45Q,S102A,D111E) VL::huLLC-C2 (Ab ID 14096) (antibody, V domains shown)
VH: B5 VH with R26G, M34I, S35H, H52N, D57S, T59R, G72R, K102Q
VL: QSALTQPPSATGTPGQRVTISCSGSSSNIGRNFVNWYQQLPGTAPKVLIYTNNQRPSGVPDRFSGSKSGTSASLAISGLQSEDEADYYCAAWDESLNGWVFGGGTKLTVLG
notes: Engineered variant of 25F8; the entries already carry the changes; Bin 2
B6: the binding result in experiment [1] was “binds”; in experiment [2], “no binding (tested: 5 ug/ml)”; in experiment [3], “binds”; in experiment [4], “no binding (tested: 5 ug/ml)”; in experiment [5] it was “no binding (tested: 5 ug/ml)”; in experiment [6] it was “no binding (tested: 5 ug/ml)”.

B7: hu anti-<huCDH19> 4A9 (Ab ID 13589) (antibody, human IgG1, lambda, V domains shown)
VH: QVQLQESGPGLVKPSETLSLTCTVSGGSISGYYWSWIRQPPGKGLEWFAYFSYSGSTNYNPSLKSRVTLSVDTSKNQFSLKLSSVTAADTAVYYCARNWAFHFDFWGQGTLVTVSS
VL: QSVLTQPPSVSGAPGQRVTISCTGSSSNIGTGYAVHWYQQFPGTAPKLLIYGNNNRPSGVPDRFSGSKSGTSASLAITGLQAEDEADYYCQSYDSRLSGWVFGGGTKLTVLG
notes: huIgG1z / huLLC-C1; Bin 1
Regarding B7, the binding result was “binds” in experiment [1]; “no binding (tested: 5 ug/ml)” in experiment [2]; “binds” in experiment [3]; “no binding (tested: 5 ug/ml)” in experiment [4]; “no binding (tested: 5 ug/ml)” in experiment [5]; “no binding (tested: 5 ug/ml)” in experiment [6].

The record behind these values is patent US20220127354A1 (Amgen, published 2022).
